Experimental data: PMC9158284, “N-terminally truncated Aβ4-x proteoforms and their relevance for Alzheimer’s pathophysiology” (Translational Neurodegeneration, 2022)
Entries after “also recorded” stand apart in the source; their conditions may differ.

Assays:
[1] = after 24-h incubation at 37 °C, 50 μM in 10 mM phosphate buffer pH 7.4, 150 mM NaF; mean of 15 scans
Description: Changes in the secondary structure of the different Aβ peptides induced by the oligomerization procedure were estimated by CD spectroscopy, as previously described [66]. The HFIP-pretreated peptides were solubilized in deionized water as above, followed by further dilution to a final concentration of 50 μM in 10 mM phosphate buffer, pH 7.4, containing 150 mM sodium fluoride. Spectra in the far-ultraviolet (wavelength range: 190–260 nm; band-width 1 nm; intervals 1 nm; scan rate 60 nm/min) were recorded for each peptide immediately after solubilization and following 24-h incubation at 37 °C in a Jasco J-720 spectropolarimeter (Jasco Inc., Easton, MD) using a 1-mm-path quartz cell. For each sample, 15 consecutive spectra were obtained and averaged, the baseline reading was subtracted, and results were expressed in terms of molar ellipticity (deg × cm^2/dmol).

[2] = design: species or system C57BL/6 mice; settings: mouse, in vivo
Description: (§1) One hundred micrograms of either full-length or truncated Aβ species in both monomeric and oligomeric forms were radiolabeled using 1,3,4,6-tetrachloro-3α-6α-diphenylglycoluril pre-coated tubes (Iodogen, ThermoFisher Scientific/Pierce, Waltham, MA) and Na^125I (1 mCi, PerkinElmer, Waltham, MA), following the manufacturer’s specifications. All radiolabeling procedures were carried out for 20 min in a Standalone Radioiodine IH-350 hood (Atlantic Nuclear, Rockland, MA). Following removal of free Iodine using a desalting polyacrylamide column (D-salt, cut off 1.8 kDa, Pierce), radioactivity of labeled Aβ was assessed in a Perkin Elmer 1470 automated gamma counter (Perkin Elmer, Waltham, MA). Under these experimental conditions, [^125I] incorporation rendered specific activities in the range of 3–5 µCi/µg with > 98% TCA precipitable counts. Aggregation status of the [^125I]-labeled Aβ monomeric and oligomeric species was analyzed by autoradiography following 16.5% SDS–polyacrylamide gel electrophoresis and subsequent direct exposure to HyBlot CL film (Denville Scientific Inc., South Plainfield, NJ), as we previously described. If not immediately used for the clearance experiments, [^125I]Aβ oligomeric peptides were stored at -80 °C and used within a week to prevent further oligomerization and minimize radiolysis.
C57BL/6 mice (Taconic Biosciences, Hudson, NY) were intracerebrally injected with the different Aβ preparations following institutionally approved IACUC protocols, essentially as previously reported by our laboratory. […] Radioactivity remaining in the whole brain was assessed in the Perkin Elmer 1470 γ-counter.

[3] = Autoradiography after SDS-polyacrylamide gel electrophoresis of [125I]-labeled Aβ preparations; type: physicochemical; settings: [125I]-labeled 24-h incubated preparations, 16.5% SDS–polyacrylamide gel
Description: as §1

[4] = Thioflavin T binding assay; type: physicochemical; settings: after 24-h incubation at 37 °C under physiological salt concentrations; 50 mM Tris–HCl pH 8.5; ex 435 / em 490 nm; three independent experiments
Description: Aggregation of the different Aβ homologues was also monitored by Thioflavin T binding, following previously described protocols. Briefly, 6 μl aliquots from each peptide aggregation time point were added to 184 μl of 50 mM Tris–HCl buffer, pH 8.5, and 10 µl of 0.1 mM thioflavin T (Sigma). Fluorescence was recorded for 300 s in an LS-50B spectrometer (Perkin Elmer, Waltham, MA) with a slit width of 10 nm and excitation and emission wavelengths of 435 and 490 nm, respectively.

[5] = mouse, in vivo; cited from earlier work
Source text: In this sense, it is important to emphasize that the cerebral microvasculature, a main player in the regulation of Aβ homeostasis, suffers ...

[6] = Electron microscopy after negative staining; type: physicochemical; settings: 24-h incubation/oligomerization
Description: All synthetic homologues were incubated at a concentration of 1 mg/ml in 1,1,1,3,3,3,hexafluoro-isopropanol (HFIP; Sigma Chemical Co., St. Louis, MO) for 4 days, a pretreatment that breaks down β-sheet structures and disrupts hydrophobic forces, leading to monodisperse amyloid subunit preparations [67]. The HFIP-pretreated peptides were lyophilized and subsequently reconstituted to 1 mM in 1% NH4OH followed by further dilution in phosphate-buffered saline (PBS) to a final concentration of 50 µM and immediately used for radioiodination and direct intracerebral injection. […] The resulting oligomers were immediately used for radiolabeling and intracerebral injections.
Peptide oligomerization was also monitored by electron microscopy, as previously described [38, 66, 71]. Five microliters of either monomeric or oligomeric preparations of the different Aβ peptides were placed onto carbon-coated 400 mesh Cu/Rh grids (Ted Pella, Inc., Redding, CA) and stained with 1% uranyl acetate in distilled water (Polysciences, Inc., Warrington, PA). The stained grids were examined in a Philips CM-12 transmission electron microscope and photographed with a Gatan (4 k × 2.7 k) digital camera at the Image Core Facility of the Skirball Institute of Biomedical Medicine, NYU School of Medicine, as described [66, 71, 72].

| Substance | Secondary structure by CD upon oligomerization [1] | Brain clearance, percentage cleared relative to the total injected radioactivity, oligomeric (24-h incubated) preparation [2] | SDS-resistant oligomeric species of 24-h incubated preparations [3] | Thioflavin T binding (fluorescence) of oligomerized peptides [4] | Percentage cleared from brain, oligomeric form [5] | Protofibrillar assemblies after the aggregation procedure, length (electron microscopy) [6] |
| --- | --- | --- | --- | --- | --- | --- |
| Aβ4-40: Synthetic homologue of Aβ1-40 N-terminally truncated at Phe4 | predominant unstructured random conformations | 46% ± 5% | from tetramers to dodecamers | low-to-intermediate thioflavin T binding activity; also recorded: higher thioflavin-binding activity than the full-length counterpart Aβ1-40 | – | – |
| Aβ1-42: Synthetic homologue of full-length amyloid-β 1-42 | this type of secondary structure became more relevant | 61% ± 4% | from tetramers to dodecamers | highest thioflavin T binding | – | – |
| Aβ1-40: Synthetic homologue of full-length amyloid-β 1-40 | intermediate mixture of β-sheet and unordered structures | – | dimeric, trimeric and tetrameric assemblies | low-to-intermediate thioflavin T binding activity | < 40% | – |
| Aβ1-34: Synthetic homologue of amyloid-β C-terminally truncated at Leu34 | maintained the same unordered conformation before and after | 86% ± 6% | did not oligomerize within the 24-h experimental timeframe | negligible fluorescence signal | – | did not form protofibrilar elements |
